Experiments:
[1] = target: Epidermal growth factor receptor (UniProt P00533)
[2] = target: RSV clinical isolate A2001/2-20 fusion (F) protein (respiratory syncytial virus strain A2001/2-20); assay: co-IP; 293T cells co-transfected with EGFR and an RSV F construct; RIPA lysates 24 h after transfection; F precipitated with motavizumab on protein-A magnetic beads overnight at 4°C, washed in RIPA; blots for EGFR and RSV F, ratio of EGFR to F1

Substance | ratio of p-EGFR to EGFR by Western blot in serum-starved HEp-2 cells 24 h after transfection with 2–20 F, against A2 F [1] [fold] | fold ratio of co-precipitated EGFR to F, against A2 F [2] [fold]
RSV clinical isolate A2001/2-20 fusion (F) protein (natural protein) | 4.45 | 
Epidermal growth factor receptor (from UniProt P00533 25-1210) |  | 2.8

From publication PMC4859522
